Source: publication PMC5632315 (Biochemistry, 2016)
No end group written: not given here.

Target: human calmodulin (CaM) construct possessing an N-terminal His6 tag (human, UniProt P0DP23 1-149)
Experiment: single-molecule TIRF microscopy

binding result: binds
Binder: C(Alexa Fluor 555 maleimide)KKKKKRFSFKKSFKLSGFSFKKNKK [Human MARCKS PIP2 binding domain peptide (MARCKS residues 151-175) with an added N-terminal cysteine]
